Laboratory results: patent publication US20260265354A1 (JIANGSU MABWELL HEALTH PHARMACEUTICAL R AND D, published 2026)
Numbering of substitutions follows the chain as printed.

B1: Antibody MM11 (antibody, mouse IgG1, kappa, V domains shown)
VH: DVQLQESGPGLVKPSQSLSLTCSVTGYSITSNFYWNWIRQFPGNRLEWMGYISYDGSNNYNPSLKNRISISRDTSKNQFFLKLNSVTTEDTATYYCVRADYWGQGTLVTVSA
VL: DTVMTQTPLSLPVSLGDQASISCRSSQSLESSDGHAYLNWYLQKPGQSPQLLIYRVSNRFSGVLHRFSGSGSGTDFTLKISRVEAEDLGVYFCLQFTHVPFTFGSGTKLEIKR
notes: Mouse monoclonal antibody from hybridoma; also called Nectin-4 mouse monoclonal antibody MM11; mouse antibody MM11
B2: Antibody R012 (antibody, V domains shown)
VH: SKSVEESGGRLVTPGTPLTLTCTVSGFSLSTYAMSWVRQAPGKGLEYIGIISGRGTTYYASWLKGRFTISKTSTTVDLKITSPTTEDTATYFCARDAGISDVYTGYFNLWGQGTLVTVSS
VL: QPVLAQLPSASAALGASAKLTCTLSSAHRTYTIAWYQQQQGEAPRYLMMLKSDGSYTKGTGVPDRFSGSSSGADRYLIISSVQAADEADYYCGADDSGGYVFGGGTQLTVTG
notes: Rabbit monoclonal antibody from phage display; also called Nectin-4 rabbit monoclonal antibody R012; rabbit antibody R012
B3: Antibody R036 (antibody, V domains shown)
VH: SQSVEESGGRLVTPGTPLTLTCTVSGFSLSSYAMSWVRQAPGKGLEYIGIIGGRGTTYYAIWAKGRFTISKTSTTVDLKITSPTTEDTATYFCARDAGTTYVGTTYVATGYFNLWGQGTLVTVSS
VL: B2 VL with A5T, L7P, R29K, M49I, K58R, A85D
notes: Rabbit monoclonal antibody from phage display; also called Nectin-4 rabbit monoclonal antibody R036; rabbit antibody R036

The binders below were run against T1, Nectin-like-2 (UniProt Q9BY67 45-374, limits assumed) (assay: ELISA, coated antigen).
T1 construct: Bought recombinant protein; also called CADM1; IgSF4
T1 sequence (looked up): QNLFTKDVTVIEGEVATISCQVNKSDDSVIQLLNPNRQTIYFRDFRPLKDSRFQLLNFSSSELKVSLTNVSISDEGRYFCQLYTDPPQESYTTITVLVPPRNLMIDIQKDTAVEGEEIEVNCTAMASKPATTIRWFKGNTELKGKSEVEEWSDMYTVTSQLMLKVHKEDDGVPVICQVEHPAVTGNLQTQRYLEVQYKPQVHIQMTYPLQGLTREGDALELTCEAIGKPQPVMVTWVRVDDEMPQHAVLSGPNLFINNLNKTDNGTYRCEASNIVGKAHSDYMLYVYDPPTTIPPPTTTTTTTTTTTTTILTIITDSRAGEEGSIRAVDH
B1: no binding (tested: 10000 ng/ml). B2: no binding (tested: 10000 ng/ml). B3: no binding (tested: 10000 ng/ml).

What follows are binders tested against T2, Nectin-like-5 (UniProt P15151 21-343) (assay: ELISA, coated antigen).
T2 construct: Bought recombinant protein; also called CD155; PVR
T2 sequence (looked up): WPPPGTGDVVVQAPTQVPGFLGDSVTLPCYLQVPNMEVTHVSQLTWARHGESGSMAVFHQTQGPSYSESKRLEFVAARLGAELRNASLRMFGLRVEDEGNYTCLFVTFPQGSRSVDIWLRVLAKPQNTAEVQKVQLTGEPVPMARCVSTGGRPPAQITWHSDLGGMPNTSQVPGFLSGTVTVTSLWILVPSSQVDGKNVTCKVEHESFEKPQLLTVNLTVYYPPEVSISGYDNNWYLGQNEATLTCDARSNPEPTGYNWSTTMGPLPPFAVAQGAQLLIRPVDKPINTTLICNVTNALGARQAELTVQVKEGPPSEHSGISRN
B1: no binding (tested: 10000 ng/ml). B2: no binding (tested: 10000 ng/ml). B3: no binding (tested: 10000 ng/ml).

The binders below were run against T3, Nectin-like-3 (UniProt Q8N3J6 25-367, limits assumed) (assay: ELISA, coated antigen).
T3 construct: Bought recombinant protein; also called CADM2; IgSF4D
T3 sequence (looked up): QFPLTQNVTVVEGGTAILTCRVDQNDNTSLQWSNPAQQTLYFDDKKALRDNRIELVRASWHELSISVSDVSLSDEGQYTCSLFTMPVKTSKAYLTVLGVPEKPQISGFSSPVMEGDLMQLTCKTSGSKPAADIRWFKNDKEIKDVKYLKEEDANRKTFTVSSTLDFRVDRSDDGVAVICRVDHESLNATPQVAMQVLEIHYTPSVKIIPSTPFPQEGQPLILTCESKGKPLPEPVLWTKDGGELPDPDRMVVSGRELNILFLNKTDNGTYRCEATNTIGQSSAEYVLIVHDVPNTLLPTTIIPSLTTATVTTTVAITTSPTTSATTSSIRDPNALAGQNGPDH
B1: no binding (tested: 10000 ng/ml). B2: no binding (tested: 10000 ng/ml). B3: no binding (tested: 10000 ng/ml).

Each binder was assayed against T1, Nectin-like-2 (assay: ELISA, coated antigen, 0 ng/ml antibody (blank control)).
Method: (§1) Coating: Nectin-1, Nectin-2, Nectin-3, Nectin-4, Nectin-like-1, Nectin-like-2, Nectin-like-3, Nectin-like-4, and Nectin-like-5 were diluted to 5 μg/ml in coating buffer (carbonate buffer, pH 9.6) respectively. A 96-well plate was coat with 100 μl per well and incubated overnight at 2-8° C.;
(§2) Sample loading: The plate was taken out, patted dry, and washed twice with 200 μl/well of PBST, then patted dry. The Nectin-4 antibodies prepared in Example 1 (antibody MM11, antibody R012, and antibody R036) were diluted with 1% BSA/PBST to concentrations of 10 μg/ml, 1 μg/ml, 100 ng/ml, and 10 ng/ml, respectively. 1% BSA/PBST solution for dilution was set as a blank control. 100 μl per well was added to the 96-well plate, and incubated at room temperature for 2 hours;
(§3) Reaction termination and plate reading: 100 μl/well of 1 mol/L H3PO4 was added to terminate the reaction and the plated was read. The absorbances of wells in the plate at 450 nm with 650 nm as reference wavelength were read and recorded as OD_{450 nm-650 nm}.
Work on B1 yielded an OD detection value of 0.006 OD450 nm-650 nm. B2 gave an OD detection value of 0.008 OD450 nm-650 nm. B3 gave an OD detection value of 0.007 OD450 nm-650 nm.

What follows are binders tested against T4, Nectin-3 (UniProt Q9NQS3 58-404, limits assumed) in the same assay as above.
T4 construct: Bought recombinant protein; also called CD113; PVRL-3
T4 sequence (Q9NQS3 58-404 limits assumed): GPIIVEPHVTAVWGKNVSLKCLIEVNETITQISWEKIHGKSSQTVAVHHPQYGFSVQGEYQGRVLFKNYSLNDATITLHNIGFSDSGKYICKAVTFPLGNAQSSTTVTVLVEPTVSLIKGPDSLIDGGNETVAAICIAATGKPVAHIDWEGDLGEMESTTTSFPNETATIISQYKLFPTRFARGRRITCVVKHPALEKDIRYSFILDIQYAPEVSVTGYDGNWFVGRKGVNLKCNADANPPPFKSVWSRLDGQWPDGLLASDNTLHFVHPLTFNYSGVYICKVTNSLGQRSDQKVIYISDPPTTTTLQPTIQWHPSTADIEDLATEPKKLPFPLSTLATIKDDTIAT
Method: as §1, §2, §3
In the case of B1, the OD detection value is reported as 0.006 OD450 nm-650 nm. For B2, the OD detection value was 0.008 OD450 nm-650 nm. B3 gave an OD detection value of 0.007 OD450 nm-650 nm.

What follows are binders tested against T5, Nectin-like-4 (UniProt Q8NFZ8 21-324, limits assumed) in the same assay as above.
T5 construct: Bought recombinant protein; also called CADM4; IgSF4C
T5 sequence (looked up): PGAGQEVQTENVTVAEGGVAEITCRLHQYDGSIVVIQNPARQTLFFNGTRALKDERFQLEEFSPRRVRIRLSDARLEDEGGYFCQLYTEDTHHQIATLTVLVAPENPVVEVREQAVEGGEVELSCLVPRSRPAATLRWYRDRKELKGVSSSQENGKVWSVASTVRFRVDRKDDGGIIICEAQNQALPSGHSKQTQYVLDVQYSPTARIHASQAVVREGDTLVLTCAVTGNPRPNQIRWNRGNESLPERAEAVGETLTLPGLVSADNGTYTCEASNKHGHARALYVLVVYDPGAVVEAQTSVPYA
Method: as §1, §2, §3
With B1 the OD detection value was 0.008 OD450 nm-650 nm. B2 showed an OD detection value of 0.008 OD450 nm-650 nm. For B3, the OD detection value was 0.007 OD450 nm-650 nm.

What follows are binders tested against T2, Nectin-like-5 in the same assay as above.
Method: as §1, §2, §3
Work on B1 yielded an OD detection value of 0.011 OD450 nm-650 nm. For B2, the OD detection value was 0.008 OD450 nm-650 nm. For B3, the OD detection value was 0.008 OD450 nm-650 nm.

Each binder was assayed against T6, Nectin-1 (UniProt Q15223 31-334, limits assumed) in the same assay as above.
T6 construct: Bought recombinant protein; also called CD111; PVRL-1
T6 sequence (looked up): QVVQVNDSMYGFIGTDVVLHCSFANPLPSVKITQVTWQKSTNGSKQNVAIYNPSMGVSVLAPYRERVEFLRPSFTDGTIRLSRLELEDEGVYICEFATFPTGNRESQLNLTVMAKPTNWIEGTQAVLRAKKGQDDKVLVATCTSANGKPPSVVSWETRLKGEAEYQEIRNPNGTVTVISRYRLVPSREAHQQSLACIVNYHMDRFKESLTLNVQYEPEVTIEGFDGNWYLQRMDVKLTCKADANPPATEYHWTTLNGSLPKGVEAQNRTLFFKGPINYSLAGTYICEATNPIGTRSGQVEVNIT
Method: as §1, §2, §3
Work on B1 yielded an OD detection value of 0.005 OD450 nm-650 nm. With B2 the OD detection value was 0.007 OD450 nm-650 nm. With B3 the OD detection value was 0.007 OD450 nm-650 nm.
